This is an account of results in patent US20250296959A1, “B7-H3 TARGETING PEPTIDES AND CONSTRUCTS THEREOF” (Mariana Oncology Inc., priority 2024, published 2025).

Starred links: 1 amine or outer side, 2 acyl side, 3 side chain; linkers in the order of their positions; H or OH if unused. Positions of bridges follow the written chain, without caps; N, C: chain ends. Non-standard residues stand in square brackets, D forms with d. Groups on a side chain read outwards from the residue. Primed or numbered codes have the meaning given here. *: point of attachment. Ala(piperidin-4-yl) = O=C([C@H](CC1CCN([*:3])CC1)N[*:1])[*:2]; (2S,3S)βMePhe = C[C@@H](c1ccccc1)[C@H](N[*:1])C(=O)[*:2]; DOTA = O=C(O)CN1CCN(CC(=O)O)CCN(CC(=O)*)CCN(CC(=O)O)CC1; Phe(4-NHCONH2) = NC(=O)Nc1ccc(C[C@H](N)C(=O)O)cc1; PipAla = piperidinyl-alanine residue (as named); Trp(5-F) = N[C@@H](Cc1c[nH]c2ccc(F)cc12)C(=O)O; hydroxyVal = hydroxy-valine residue (as named); PEG4′ = 4x 3-(2-aminoethoxy)propanoic acid; 1Nal = N[C@@H](Cc1cccc2ccccc12)C(=O)O; Ala(4-THP) = N[C@@H](CC1CCOCC1)C(=O)O; Val(3-OH) = CC(C)(O)[C@H](N)C(=O)O; Cha = N[C@@H](CC1CCCCC1)C(=O)O; Tle = CC(C)(C)[C@H](N)C(=O)O; hLeu = CC(C)CC[C@H](N)C(=O)O; Sar = CNCC(=O)O

Test [1] addresses B7-H3 on Calu-6 cells (human) (UniProt Q5ZPR3). The experiment in a line: 177Lu-labelled peptide on Calu-6 cells, % cell associated fraction; C = >50%.
Another test concerns the target T1, B7-H3 on Calu-6 cells (human, UniProt Q5ZPR3 29-534).
T1 construct: whole, on cells
T1 sequence (looked up): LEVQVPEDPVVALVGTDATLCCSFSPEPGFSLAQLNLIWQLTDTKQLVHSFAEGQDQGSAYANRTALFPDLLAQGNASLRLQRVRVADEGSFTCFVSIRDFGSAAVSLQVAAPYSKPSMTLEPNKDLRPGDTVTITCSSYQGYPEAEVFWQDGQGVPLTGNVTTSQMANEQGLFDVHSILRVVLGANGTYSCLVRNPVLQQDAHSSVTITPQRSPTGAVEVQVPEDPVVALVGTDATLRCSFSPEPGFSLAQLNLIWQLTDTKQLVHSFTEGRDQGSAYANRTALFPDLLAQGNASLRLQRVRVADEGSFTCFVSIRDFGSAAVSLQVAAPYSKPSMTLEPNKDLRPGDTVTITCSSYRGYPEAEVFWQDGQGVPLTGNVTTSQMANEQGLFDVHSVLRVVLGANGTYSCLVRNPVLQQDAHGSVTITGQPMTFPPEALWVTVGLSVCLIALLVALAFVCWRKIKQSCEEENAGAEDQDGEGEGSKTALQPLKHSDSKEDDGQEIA
Described as above.

B1: Cpd 340 (peptide)
peptide: Ac-[hLeu]YC[Tle]G[Ala(piperidin-4-yl)][Ala(4-THP)]DVYC[Trp(5-F)]F[Val(3-OH)][dK](DOTA)-OH
modifications: disulfide 3-11 (inferred)
Consider B1, for which, in test [1], the % cell associated fraction was above 50%.

B2: Cpd 385 (peptide)
peptide: Ac-[hLeu]YC[Tle]GK[Pip(PEG4-DOTA)Ala]DVYC[Trp(5-F)]F[Val(3-OH)][dA]-NH2
modifications: disulfide 3-11 (inferred)
As for B2, the % cell associated fraction in test [1] is above 50%.

B3: Cpd 501 (peptide)
peptide: Ac-[hLeu]YC[Tle]G[PipAla][Ala(4-THP)]DVYC[Trp(5-F)][(2S,3S)βMePhe][Val(3-OH)][dK]([dE-DOTA])-OH
modifications: disulfide 3-11 (inferred)
Take B3: the % cell associated fraction in test [1] is above 50%.

B4: Cpd 497 (peptide)
peptide: Ac-[hLeu]YC[Tle]G[PipAla](CH2COOH)[Ala(4-THP)]DVYC[Trp(5-F)][(2S,3S)βMePhe][Val(3-OH)][dK](DOTA)-OH
modifications: disulfide 3-11 (inferred)
Turning to B4, in test [1], the % cell associated fraction is above 50%.

B5: Cpd 499 (peptide)
peptide: Ac-[hLeu]YC[Tle]G[PipAla](CH2COOH)[Ala(4-THP)]DV[Phe(4-NHCONH2)]C[Trp(5-F)][(2S,3S)βMePhe][Val(3-OH)][dK](DOTA)-OH
modifications: disulfide 3-11 (inferred)
Take B5: the % cell associated fraction in test [1] was above 50%.

B6: Cpd 427 (peptide)
peptide: Ac-[hLeu]YC[Tle]G[PipAla][Ala(4-THP)]DV[Phe(4-NHCONH2)]CXF[hydroxyVal][dK](DOTA)-OH
modifications: disulfide 3-11 (inferred); not fully specified (residue 12); printed as Ac-hLeu-Y-C-Tbg-G-PipAla-ThpA-D-V-Aph(Cbm)-C-5FW-F-hydroxyVal-dLys(DOTA)-COOH, disulfide
Take B6: the % cell associated fraction in test [1] is above 50%.

B7: Cpd 339 (peptide)
peptide: Ac-[hLeu]YC[Tle]G[PipAla](CH2CO2H)[Ala(4-THP)]DVYC[Trp(5-F)]F[Val(3-OH)][dK](DOTA)-OH
modifications: disulfide 3-11 (inferred)
With B7, the % cell associated fraction in test [1] is above 50%.

B8: Cpd 495 (peptide)
peptide: Ac-[hLeu]YC[Tle]G[PipAla][PipAla]([PEG4′-DOTA])DVYC[Trp(5-F)][(2S,3S)βMePhe][Val(3-OH)][dE]-NH2
modifications: disulfide 3-11 (inferred)
B8: the % cell associated fraction in test [1] was above 50%.

B9: Cpd 158 (peptide)
peptide: Ac-[hLeu]YCVGKYDVYC[1Nal]FT[dK](DOTA)-NH2
modifications: disulfide 3-11
SMILES: CC(=O)N[C@@H](CCC(C)C)C(=O)N[C@@H](Cc1ccc(O)cc1)C(=O)N[C@H]1CSSC[C@@H](C(=O)N[C@@H](Cc2cccc3ccccc23)C(=O)N[C@@H](Cc2ccccc2)C(=O)N[C@H](C(=O)N[C@H](CCCCNC(=O)CN2CCN(CC(=O)O)CCN(CC(=O)O)CCN(CC(=O)O)CC2)C(N)=O)[C@@H](C)O)NC(=O)[C@H](Cc2ccc(O)cc2)NC(=O)[C@H](C(C)C)NC(=O)[C@H](CC(=O)O)NC(=O)[C@H](Cc2ccc(O)cc2)NC(=O)[C@H](CCCCN)NC(=O)CNC(=O)[C@H](C(C)C)NC1=O
For the molecule B9, in the test with B7-H3 on Calu-6 cells, the “% cell associated fraction” value is above 50%.

B10: Cpd 227 (peptide)
peptide: Ac-[hLeu]YCVG[Ala(piperidin-4-yl)][Cha]DVYC[Trp(5-F)]F[Val(3-OH)][dK](DOTA)-NH2
modifications: disulfide 3-11 (inferred)
Molecule B10 had a % cell associated fraction in test [1] above 50%.

B11: Cpd 455 (peptide)
peptide: Ac-[hLeu]YC[Tle]G[PipAla][PipAla]([PEG4′-DOTA])DVYC[Trp(5-F)]F[hydroxyVal][dA]-OH
modifications: disulfide 3-11 (inferred)
As for B11, the % cell associated fraction in test [1] was above 50%.

B12: Cpd 73 (peptide)
peptide: Ac-[hLeu]YCVGKYDVYC[Trp(5-F)]FT[dK](DOTA)-NH2
modifications: disulfide 3-11
SMILES: CC(=O)N[C@@H](CCC(C)C)C(=O)N[C@@H](Cc1ccc(O)cc1)C(=O)N[C@H]1CSSC[C@@H](C(=O)N[C@@H](Cc2c[nH]c3ccc(F)cc23)C(=O)N[C@@H](Cc2ccccc2)C(=O)N[C@H](C(=O)N[C@H](CCCCNC(=O)CN2CCN(CC(=O)O)CCN(CC(=O)O)CCN(CC(=O)O)CC2)C(N)=O)[C@@H](C)O)NC(=O)[C@H](Cc2ccc(O)cc2)NC(=O)[C@H](C(C)C)NC(=O)[C@H](CC(=O)O)NC(=O)[C@H](Cc2ccc(O)cc2)NC(=O)[C@H](CCCCN)NC(=O)CNC(=O)[C@H](C(C)C)NC1=O
For B12, in the test with B7-H3 on Calu-6 cells, the “% cell associated fraction” value was above 50%.

B13: Cpd 433 (peptide)
peptide: Ac-[hLeu]YC[Tle]G[PipAla][Ala(4-THP)]DVYCX[(2S,3S)βMePhe][hydroxyVal][dK](DOTA)-OH
modifications: disulfide 3-11 (inferred); not fully specified (residue 12); printed as Ac-hLeu-Y-C-Tbg-G-PipAla-ThpA-D-V-Y-C-5FW-[(2S, 3S)beta-Me-Phe]-hydroxyVal-dLys(DOTA)-COOH, disulfide
B13 showed a % cell associated fraction in test [1] above 50%.

B14: Cpd 77 (peptide)
peptide: Ac-[hLeu]YCV[Sar]KYDVYC[Trp(5-F)]FT[dK](DOTA)-NH2
modifications: disulfide 3-11
SMILES: CC(=O)N[C@@H](CCC(C)C)C(=O)N[C@@H](Cc1ccc(O)cc1)C(=O)N[C@H]1CSSC[C@@H](C(=O)N[C@@H](Cc2c[nH]c3ccc(F)cc23)C(=O)N[C@@H](Cc2ccccc2)C(=O)N[C@H](C(=O)N[C@H](CCCCNC(=O)CN2CCN(CC(=O)O)CCN(CC(=O)O)CCN(CC(=O)O)CC2)C(N)=O)[C@@H](C)O)NC(=O)[C@H](Cc2ccc(O)cc2)NC(=O)[C@H](C(C)C)NC(=O)[C@H](CC(=O)O)NC(=O)[C@H](Cc2ccc(O)cc2)NC(=O)[C@H](CCCCN)NC(=O)CN(C)C(=O)[C@H](C(C)C)NC1=O
Take B14: the “% cell associated fraction” value with B7-H3 on Calu-6 cells is above 50%.

B15: Cpd 76 (peptide)
peptide: Ac-[hLeu]YC[Tle]GKYDVYC[Trp(5-F)]FT[dK](DOTA)-NH2
modifications: disulfide 3-11
SMILES: CC(=O)N[C@@H](CCC(C)C)C(=O)N[C@@H](Cc1ccc(O)cc1)C(=O)N[C@H]1CSSC[C@@H](C(=O)N[C@@H](Cc2c[nH]c3ccc(F)cc23)C(=O)N[C@@H](Cc2ccccc2)C(=O)N[C@H](C(=O)N[C@H](CCCCNC(=O)CN2CCN(CC(=O)O)CCN(CC(=O)O)CCN(CC(=O)O)CC2)C(N)=O)[C@@H](C)O)NC(=O)[C@H](Cc2ccc(O)cc2)NC(=O)[C@H](C(C)C)NC(=O)[C@H](CC(=O)O)NC(=O)[C@H](Cc2ccc(O)cc2)NC(=O)[C@H](CCCCN)NC(=O)CNC(=O)[C@H](C(C)(C)C)NC1=O
Turning to B15, the “% cell associated fraction” value with B7-H3 on Calu-6 cells is above 50%.

B16: Cpd 407 (peptide)
peptide: Ac-[hLeu]YC[Tle]G[Pip(PEG4-DOTA)Ala][Ala(4-THP)]DVYC[Trp(5-F)]F[Val(3-OH)][dS]-NH2
modifications: disulfide 3-11 (inferred)
As for B16, the % cell associated fraction in test [1] was above 50%.

B17: Cpd 72 (peptide)
peptide: Ac-[hLeu]YC[Tle]GKYDVYCWFT[dK](DOTA)-NH2
modifications: disulfide 3-11
SMILES: CC(=O)N[C@@H](CCC(C)C)C(=O)N[C@@H](Cc1ccc(O)cc1)C(=O)N[C@H]1CSSC[C@@H](C(=O)N[C@@H](Cc2c[nH]c3ccccc23)C(=O)N[C@@H](Cc2ccccc2)C(=O)N[C@H](C(=O)N[C@H](CCCCNC(=O)CN2CCN(CC(=O)O)CCN(CC(=O)O)CCN(CC(=O)O)CC2)C(N)=O)[C@@H](C)O)NC(=O)[C@H](Cc2ccc(O)cc2)NC(=O)[C@H](C(C)C)NC(=O)[C@H](CC(=O)O)NC(=O)[C@H](Cc2ccc(O)cc2)NC(=O)[C@H](CCCCN)NC(=O)CNC(=O)[C@H](C(C)(C)C)NC1=O
On to B17, for which the “% cell associated fraction” value with B7-H3 on Calu-6 cells is above 50%.

B18: Cpd 464 (peptide)
peptide: Ac-[hLeu]YC[Tle]G[PipAla][Ala(4-THP)]DVYC[Trp(5-F)]F[hydroxyVal][dK]([hGlu-DOTA])-OH
modifications: disulfide 3-11 (inferred)
In test [1], B18 registered a % cell associated fraction above 50%.

B19: Cpd 408 (peptide)
peptide: Ac-[hLeu]YC[Tle]GK[Pip(PEG4-DOTA)Ala]DVYC[Trp(5-F)]F[Val(3-OH)][dS]-NH2
modifications: disulfide 3-11 (inferred)
On to B19, for which, in test [1], the % cell associated fraction was above 50%.
